Test results reported in patent publication US20030092164A1.

What was measured:
[1] = biological target: TACI receptor; assay: I^125-labeled ZTNF4 binding to baby hamster kidney cells transfected with a TACI expression vector; Scatchard analysis
[2] = biological target: Ztnfr12 (human); assay: I^125-labeled ZTNF4 binding to baby hamster kidney cells transfected with Ztnfr12; Scatchard analysis

Substance ZTNF4 (ligand) has a Kd [1] of 1.25 nM and a Kd [2] of 1 nM.
